Data set [1] deals with T1, synthetic gamma poly-glutamate peptide of 30 D-glutamate residues.
T1 chain: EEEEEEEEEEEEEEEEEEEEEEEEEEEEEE

Data set [2] has as its target T2, synthetic gamma poly-glutamate 30mer containing both D- and L-glutamate (15 D- and 15 L-residues) (not fully specified).
T2 chain: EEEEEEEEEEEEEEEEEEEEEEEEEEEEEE

Data set [3] has as its target T3, synthetic gamma poly-glutamate peptide of 30 L-glutamate residues.
T3 chain: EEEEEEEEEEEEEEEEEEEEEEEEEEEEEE

Consider 1 protein from patent publication US20100226906.

B1: recombinant poly-γ-glutamate hydrolase (PghP) of bacteriophage φNIT1 (protein)
chain: MAQTDTYPNIEALENAETVGVAYNIEVKRQNPSMIYFSPHAGGIEVGTTELIYRVVELTGGSLYLFQGLLPSGNSRLHVTSTHFDEPMAVCMLSKHTDAVSFHGYKDDYNKNTLVGGLNTELRNLIVSKLNSKGIAAEVATDRFTATDPDNIVNRCASGKGVQLEISSAQRRAFFQNNDWSKANRGNVTQEFLDYAEAIKEAEAEYYG
Regarding B1, the “hydrolysis of synthetic 30mer (digestion with purified enzyme, SDS tricine PAGE)” value in data set [1] was “No hydrolysis of the D-polyglutamate was seen”; in data set [2], “complete hydrolysis of L- and 30mers containing both D- and L-was observed”; in data set [3], “complete hydrolysis of L- and 30mers containing both D- and L-was observed”.
